Test results published in the Human Domainome abundance scans (Beltran et al. 2025).

B1: Activity-dependent neuroprotector homeobox protein, residues 770 to 810; numbered along this chain, Q9H2P0 (parent)
chain: FLTKYFNKQPYPTRREIEKLAASLWLWKSDIASHFSNKRKK
B2: Homeobox protein cut-like 1, residues 548 to 629; numbered along this chain, P39880 (parent)
chain: GEEMDTAEIARQVKEQLIKHNIGQRIFGHYVLGLSQGSVSEILARPKPWNKLTVRGKEPFHKMKQFLSDEQNILALRSIQGR

Variants of: B1
Assay: abundance fitness (aPCA) (normalised: wild type 0, dead -1); higher = more abundant; growth selection in yeast, the domain comes from the species named
Conditions: Homo sapiens

Abundance fitness of substitutions, site by site:
K41: M 0.082, D -0.015, P -0.188, V -0.309, E -0.092, Y -0.378, H -0.214, L -0.4, N -0.15, R -0.092, T -0.128, W 0.259, A -0.319, C -0.261, I -0.277, Q 0.153, G -0.135
R39: Q -0.195, W 0.009, P -0.232, V -0.185, S -0.085, N -0.012
K40: E -0.278, A -0.013, W -0.137, F -0.098, G -0.06, C -0.097, V -0.461, D -0.253, T 0.009, P -0.28, N -0.425, I -0.27, M -0.069, L -0.352, S -0.259, R -0.156

Variants of: B2
Assay: as above
Conditions: Homo sapiens

Abundance fitness of substitutions, site by site:
E3: A -0.064, N -0.119, L -0.107, G -0.155, I -0.081, F 0.1, Y -0.091, S -0.118, Q -0.089, H -0.027, V -0.098, C -0.142, P -0.137, W -0.017, M -0.101, T -0.057, D 0.001, R -0.145, K -0.064
E2: H -0.256, V -0.17, Y -0.175, K -0.116, P -0.478, G -0.145, I -0.261, W -0.202, T -0.117, R -0.188, S -0.087, C -0.137, L -0.193, D -0.154, A -0.121, Q -0.126, F -0.107
M4: I 0.101, A -0.432, C -0.677, G -0.523, N -0.331, T -0.204, K -0.36, L 0.002, H -0.304, S -0.355, P -0.318, W -0.23, D -0.304, Y -0.203, E -0.191, F -0.244, Q -0.2, R -0.517
D5: E -0.163, M -0.638, V -0.537, T -0.006, K -0.274, A -0.204, Q -0.226, G -0.395, N -0.076, R -0.541, P -0.269, H -0.294, Y -0.561, W -0.782, F -0.644, L -0.817, S -0.082, I -0.689
E8: F -0.22, C -0.219, A -0.118, G -0.233, D -0.032
T6: W -0.884, R -0.896, I -1.14, P -0.385, L -1.02, A -0.697, M -1.01, K -0.81, G -0.946, V -0.839, D -0.859, Y -0.901, C -0.66, S -0.468, F -0.822, E -0.921
A7: P -0.532, W -0.143, Y -0.093, R -0.093, E -0.029, G -0.17, F -0.053, M -0.107, V -0.121, D -0.136, L -0.082, S -0.09, C -0.081, H 0.01, Q -0.028, K -0.003
G1: E -0.036, F -0.104, P -0.044, T -0.035, A -0.064, D 0.029, H -0.289, I 0.049, Q -0.051, C -0.026, W -0.172, R -0.041, M 0.038, V -0.01, K -0.035, S -0.004, Y 0.075, L -0.03, N -0.012
